Results published in publication PMC6668613 (Nature plants, 2019).
Like-named read-outs stand apart in the source and are kept apart here. Values belong to the binder of their own block, whether it stands above or below them. Ends that are not written are not given here.

Tests used:
Test in all cases: BLI
[1] = target: T1, GST-MPK6 (Arabidopsis thaliana, UniProt Q39026 1-395)
[2] = target: T1, GST-MPK6; remark: listed apart in the source
[3] = target: T2, GST-MPK3 (Arabidopsis thaliana, UniProt Q39023 1-370)
T2 sequence (looked up): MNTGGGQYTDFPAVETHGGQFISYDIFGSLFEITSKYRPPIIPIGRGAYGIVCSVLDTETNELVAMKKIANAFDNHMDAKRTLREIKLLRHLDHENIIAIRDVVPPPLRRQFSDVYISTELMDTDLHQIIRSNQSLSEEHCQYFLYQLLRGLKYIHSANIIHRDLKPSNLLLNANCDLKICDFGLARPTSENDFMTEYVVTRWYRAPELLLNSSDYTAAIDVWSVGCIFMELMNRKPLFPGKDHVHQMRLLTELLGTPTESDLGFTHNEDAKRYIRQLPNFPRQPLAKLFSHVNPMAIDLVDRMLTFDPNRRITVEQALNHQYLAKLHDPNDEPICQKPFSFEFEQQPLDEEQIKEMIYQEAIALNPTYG

T1 sequence (Q39026 whole entry): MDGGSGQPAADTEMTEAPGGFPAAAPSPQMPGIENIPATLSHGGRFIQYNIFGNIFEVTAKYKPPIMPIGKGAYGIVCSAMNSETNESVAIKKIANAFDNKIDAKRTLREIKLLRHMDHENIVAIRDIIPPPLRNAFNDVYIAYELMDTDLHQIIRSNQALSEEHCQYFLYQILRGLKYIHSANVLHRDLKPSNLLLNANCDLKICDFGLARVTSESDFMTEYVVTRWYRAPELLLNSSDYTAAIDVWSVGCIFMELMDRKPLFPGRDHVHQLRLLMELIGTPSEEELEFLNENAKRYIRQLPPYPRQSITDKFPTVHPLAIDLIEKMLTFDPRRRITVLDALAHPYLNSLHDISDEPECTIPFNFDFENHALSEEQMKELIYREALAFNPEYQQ

Kd [1]: 47 ± 6 nM
B1: SCRM KiDoK full-length peptide, biotinylated (peptide)
chain: GGFVGNRAKVLKPLEVLASSGAQPTLFQKRAAMRQ
modifications: also: biotinylated, position not given here

Kd [2]: 2300 ± 500 nM
B2: Docking motif peptide, biotinylated (peptide)
chain: GGFVGNRAKVLKPLEVL
modifications: also: biotinylated, position not given here

Kd [3]: 2800 ± 700 nM | Kd [2]: 2400 ± 400 nM
B3: KRAAM motif peptide, biotinylated (peptide)
chain: ASSGAQPTLFQKRAAMRQ
modifications: also: biotinylated, position not given here
